T1: PFT1-CFP (Arabidopsis thaliana, UniProt Q7XYY2 1-836)
T1 construct: PFT1 (MED25), Arabidopsis thaliana, At1g25540; FRET donor; also called PHYTOCHROME AND FLOWERING TIME 1; MED25; source: Arabidopsis protoplast cells, co-expressed
T1 sequence (looked up): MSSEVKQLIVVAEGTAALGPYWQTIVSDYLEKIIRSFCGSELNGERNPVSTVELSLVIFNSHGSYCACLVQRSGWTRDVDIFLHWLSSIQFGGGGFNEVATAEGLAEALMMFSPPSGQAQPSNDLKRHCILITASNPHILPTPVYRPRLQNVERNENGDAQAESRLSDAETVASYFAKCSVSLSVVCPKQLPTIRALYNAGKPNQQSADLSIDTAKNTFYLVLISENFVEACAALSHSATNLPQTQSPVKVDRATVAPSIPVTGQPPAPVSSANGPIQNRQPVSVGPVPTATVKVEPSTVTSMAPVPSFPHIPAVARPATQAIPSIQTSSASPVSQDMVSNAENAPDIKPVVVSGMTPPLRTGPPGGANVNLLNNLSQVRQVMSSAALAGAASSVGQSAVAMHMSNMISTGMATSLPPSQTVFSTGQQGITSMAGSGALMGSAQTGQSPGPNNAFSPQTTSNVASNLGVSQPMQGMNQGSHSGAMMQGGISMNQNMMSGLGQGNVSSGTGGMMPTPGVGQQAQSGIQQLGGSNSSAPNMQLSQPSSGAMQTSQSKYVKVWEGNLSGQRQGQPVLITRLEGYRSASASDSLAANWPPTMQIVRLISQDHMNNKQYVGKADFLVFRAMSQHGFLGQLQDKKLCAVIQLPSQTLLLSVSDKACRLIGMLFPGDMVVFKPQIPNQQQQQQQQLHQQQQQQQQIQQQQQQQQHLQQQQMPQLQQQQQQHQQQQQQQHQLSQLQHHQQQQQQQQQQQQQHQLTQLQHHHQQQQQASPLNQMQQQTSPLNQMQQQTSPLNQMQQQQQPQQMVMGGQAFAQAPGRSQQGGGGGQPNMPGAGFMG

T2: PFT1-YFP (Arabidopsis thaliana, UniProt Q7XYY2 1-836)
T2 construct: PFT1 (MED25), Arabidopsis thaliana, At1g25540; FRET acceptor; also called PHYTOCHROME AND FLOWERING TIME 1; MED25; source: Arabidopsis protoplast cells, co-expressed
T2 sequence (looked up): T1 sequence (looked up)

B1: FBH1-YFP (natural protein, Arabidopsis thaliana, UniProt Q9C8P8 1-259, looked up)
chain: MQSTHISGGSSGGGGGGGGEVSRSGLSRIRSAPATWIETLLEEDEEEGLKPNLCLTELLTGNNNSGGVITSRDDSFEFLSSVEQGLYNHHQGGGFHRQNSSPADFLSGSGSGTDGYFSNFGIPANYDYLSTNVDISPTKRSRDMETQFSSQLKEEQMSGGISGMMDMNMDKIFEDSVPCRVRAKRGCATHPRSIAERVRRTRISDRIRRLQELVPNMDKQTNTADMLEEAVEYVKALQSQIQELTEQQKRCKCKPKEEQ
notes: FBH1, Arabidopsis thaliana, At1g35460; FRET acceptor; also called FLOWERING BHLH 1; source: Arabidopsis protoplast cells, co-expressed
B2: TCP4-CFP (natural protein, Arabidopsis thaliana, UniProt Q8LPR5 1-420, looked up)
chain: MSDDQFHHPPPPSSMRHRSTSDAADGGCGEIVEVQGGHIVRSTGRKDRHSKVCTAKGPRDRRVRLSAHTAIQFYDVQDRLGFDRPSKAVDWLIKKAKTSIDELAELPPWNPADAIRLAAANAKPRRTTAKTQISPSPPPPQQQQQQQQLQFGVGFNGGGAEHPSNNESSFLPPSMDSDSIADTIKSFFPVIGSSTEAPSNHNLMHNYHHQHPPDLLSRTNSQNQDLRLSLQSFPDGPPSLLHHQHHHHTSASASEPTLFYGQSNPLGFDTSSWEQQSSEFGRIQRLVAWNSGGGGGATDTGNGGGFLFAPPTPSTTSFQPVLGQSQQLYSQRGPLQSSYSPMIRAWFDPHHHHQSISTDDLNHHHHLPPPVHQSAIPGIGFASGEFSSGFRIPARFQGQEEEQHDGLTHKPSSASSISRH
notes: TCP4, Arabidopsis thaliana, At3g15030; FRET donor; source: Arabidopsis protoplast cells, co-expressed

Legend:
Test in all cases: FRET or BRET; FLIM-FRET in Arabidopsis protoplast cells, 24 h after transformation; CFP fusion as donor, YFP fusion as acceptor; CFP lifetime in nuclei; negative controls TCP4-CFP/YFP tauD 2.59 ± 0.39 ns and PFT1-CFP/YFP tauD 2.80 ± 0.28 ns
Details in all cases: partners not purified
[1] = target: T1, PFT1-CFP
[2] = target: T2, PFT1-YFP
[3] = target: B1

| average CFP fluorescence lifetime (tauDA) [1] [ns] | average CFP fluorescence lifetime (tauDA) [2] [ns] | average CFP fluorescence lifetime (tauDA) [3] [ns] | Binder |
| --- | --- | --- | --- |
| 0.95 | – | – | B1 |
| – | 0.9 | 0.99 | B2 |
